The values below come from article PMC8526164.

For data set [1], the system named is AtEndoV (Y100A) (Arabidopsis thaliana). Nature of the data set: SPR. As to conditions: SPR (ProteOn XPR36, NLC chip): PBS, 0.005% Tween 20, pH 7.4, 1 mM EDTA, no divalent metal, 25 C, protein 31.25-500 nM.
In data set [2] the test system is AtEndoV (WT) (Arabidopsis thaliana). Nature of the data set: SPR. Conditions: SPR (ProteOn XPR36, NLC chip): PBS, 0.005% Tween 20, pH 7.4, 1 mM EDTA, no divalent metal, 25 C, protein 31.25-500 nM.
The mark [3] stands for this setting: N at position 11 = deoxyinosine.

In the case of CUGUAUGAUGNAGAUGCUGAC [ssRNA(I) 21-mer], the values for the Kd in data set [1] (N at position 11 = inosine) and in data set [2] (N at position 11 = inosine) were 0.12 µM and 0.002 µM, respectively.

“CTGTATGATGNAGATGCTGAC [ssDNA(dI) 21-mer]”: the Kd (in general, a measure of binding affinity in units of concentration) in data set [1] (setting [3]) is 160 µM; in data set [2] (setting [3]), 220 µM.
